Laboratory results from PMC4350099.

Biological target: 14-3-3ζ (UniProt P63104)
Test: GST pull-down from co-transfected cells
Conditions: reference: wild type

Notch4 (Notch4-ICD; Notch4-ΔhN4) ICD (from UniProt Q99466) 4XA (S1495/1847/1865/1917A)
binding against the reference (sites S1495,S1847,S1865,S1917): lost

Notch4 (Notch4-ICD; Notch4-ΔhN4) ICD (from UniProt Q99466) S1495A
binding against the reference (sites S1495): weaker

Notch4 (Notch4-ICD; Notch4-ΔhN4) ICD (from UniProt Q99466) S1847A
binding against the reference (sites S1847): weaker

Notch4 (Notch4-ICD; Notch4-ΔhN4) ICD (from UniProt Q99466) S1865A
binding against the reference (sites S1865): weaker

Notch4 (Notch4-ICD; Notch4-ΔhN4) ICD (from UniProt Q99466) S1917A
binding against the reference (sites S1917): weaker
